Source: patent US20110098217A1 (INDIANA UNIVERSITY RESEARCH AND TECHNOLOGY, published 2011)
Several values for one entry are separate records, joined by “and”; a condition that tells them apart may be missing. Equal entries are not always repeated. Where two headings read alike, the source gives them in different places. Bridge positions count the residues as written; N and C are the ends. Square brackets hold non-standard residues; d marks the D form. Ends that are not written are not given here. PhLac = O=C(O)[C@@H](O)Cc1ccccc1

How the values were obtained:
[1] = molecular target: T1, human glucagon receptor (human, UniProt P47871 26-477); assay: cell-based or functional assay
T1 sequence (P47871 26-477): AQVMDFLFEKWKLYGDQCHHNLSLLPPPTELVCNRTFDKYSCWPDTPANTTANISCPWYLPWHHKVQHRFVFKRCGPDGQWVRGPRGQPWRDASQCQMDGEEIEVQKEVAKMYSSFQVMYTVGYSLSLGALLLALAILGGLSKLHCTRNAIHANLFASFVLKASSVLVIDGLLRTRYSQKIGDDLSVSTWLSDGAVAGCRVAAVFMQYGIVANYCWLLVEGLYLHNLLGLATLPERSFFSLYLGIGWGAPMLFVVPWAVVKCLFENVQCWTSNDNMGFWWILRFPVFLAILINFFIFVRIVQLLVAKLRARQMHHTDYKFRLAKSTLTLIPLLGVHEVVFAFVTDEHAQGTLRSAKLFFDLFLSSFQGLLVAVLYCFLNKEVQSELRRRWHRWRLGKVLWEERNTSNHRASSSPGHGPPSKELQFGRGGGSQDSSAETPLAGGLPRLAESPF

[2] = molecular target: T2, human GLP-1 receptor (human, UniProt P43220 24-463); assay: cell-based or functional assay
Target sequence in this assay (P43220 24-463): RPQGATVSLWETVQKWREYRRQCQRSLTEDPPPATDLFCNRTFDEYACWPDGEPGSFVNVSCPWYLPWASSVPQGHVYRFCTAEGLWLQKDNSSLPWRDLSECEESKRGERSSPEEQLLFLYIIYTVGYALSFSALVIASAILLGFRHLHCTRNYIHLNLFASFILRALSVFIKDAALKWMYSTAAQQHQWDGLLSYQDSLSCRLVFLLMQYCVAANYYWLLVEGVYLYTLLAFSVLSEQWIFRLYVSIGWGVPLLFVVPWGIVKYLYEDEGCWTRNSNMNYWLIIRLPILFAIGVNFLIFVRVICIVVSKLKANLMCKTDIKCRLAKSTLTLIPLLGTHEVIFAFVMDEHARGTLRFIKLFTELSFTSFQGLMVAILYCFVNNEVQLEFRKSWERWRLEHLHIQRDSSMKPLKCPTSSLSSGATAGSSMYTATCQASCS

[3] = molecular target: T1, human glucagon receptor; assay: cell-based or functional assay; remark: listed apart in the source
[4] = molecular target: T1, human glucagon receptor; assay: cell-based or functional assay; remark: listed apart in the source
[5] = molecular target: T1, human glucagon receptor; assay: cell-based or functional assay; remark: listed apart in the source
[6] = molecular target: T2, human GLP-1 receptor; assay: cell-based or functional assay; remark: listed apart in the source
[7] = molecular target: T1, human glucagon receptor; assay: cell-based or functional assay; remark: listed apart in the source
[8] = molecular target: T1, human glucagon receptor; assay: SPA competition vs 125I-glucagon, receptor membranes
[9] = molecular target: T1, human glucagon receptor; assay: as above; remark: listed apart in the source
[10] = molecular target: T1, human glucagon receptor; assay: as above; remark: listed apart in the source
[11] = molecular target: T1, human glucagon receptor; assay: cell-based or functional assay; remark: listed apart in the source
[12] = molecular target: T2, human GLP-1 receptor; assay: cell-based or functional assay; remark: listed apart in the source
[13] = molecular target: T1, human glucagon receptor; assay: cell-based or functional assay; remark: listed apart in the source
[14] = molecular target: T2, human GLP-1 receptor; assay: cell-based or functional assay; remark: listed apart in the source
[15] = molecular target: T1, human glucagon receptor; assay: cell-based or functional assay; remark: listed apart in the source
[16] = molecular target: T2, human GLP-1 receptor; assay: cell-based or functional assay; remark: listed apart in the source
[17] = molecular target: T1, human glucagon receptor; assay: cell-based or functional assay; remark: listed apart in the source
[18] = molecular target: T2, human GLP-1 receptor; assay: cell-based or functional assay; remark: listed apart in the source
[19] = molecular target: T1, human glucagon receptor; assay: cell-based or functional assay; remark: listed apart in the source
[20] = molecular target: T2, human GLP-1 receptor; assay: cell-based or functional assay; remark: listed apart in the source
[21] = molecular target: T1, human glucagon receptor; assay: cell-based or functional assay; remark: listed apart in the source
[22] = molecular target: T1, human glucagon receptor; assay: cell-based or functional assay; remark: listed apart in the source
[23] = molecular target: human GLP-1 receptor (human) (UniProt P43220); assay: cell-based or functional assay
human GLP-1 receptor (human), sequence (P43220 24-463): as above

[24] = molecular target: human glucagon receptor (human) (UniProt P47871); assay: cell-based or functional assay
human glucagon receptor (human), sequence (P47871 26-477): as the sequence (P47871 26-477) above

[25] = molecular target: human GLP-1 receptor (human) (UniProt P43220); assay: cell-based or functional assay; remark: listed apart in the source
[26] = molecular target: human glucagon receptor (human) (UniProt P47871); assay: cell-based or functional assay; remark: listed apart in the source
[27] = molecular target: T1, human glucagon receptor; assay: cell-based or functional assay; remark: listed apart in the source
[28] = molecular target: T2, human GLP-1 receptor; assay: cell-based or functional assay; remark: listed apart in the source
[29] = molecular target: T1, human glucagon receptor; assay: cell-based or functional assay; remark: listed apart in the source
[30] = molecular target: T2, human GLP-1 receptor; assay: cell-based or functional assay; remark: listed apart in the source
[31] = molecular target: T2, human GLP-1 receptor; assay: cell-based or functional assay; remark: listed apart in the source
[32] = molecular target: T1, human glucagon receptor; assay: cell-based or functional assay; remark: listed apart in the source
[33] = molecular target: T2, human GLP-1 receptor; assay: cell-based or functional assay; remark: listed apart in the source
[34] = molecular target: T1, human glucagon receptor; assay: cell-based or functional assay; remark: listed apart in the source
[35] = molecular target: T1, human glucagon receptor; assay: SPA competition vs 125I-glucagon, receptor membranes; remark: listed apart in the source
[36] = molecular target: T1, human glucagon receptor; assay: as above; remark: listed apart in the source
[37] = molecular target: T1, human glucagon receptor; assay: as above; remark: listed apart in the source
[38] = molecular target: T2, human GLP-1 receptor; assay: cell-based or functional assay; remark: listed apart in the source
[39] = molecular target: T1, human glucagon receptor; assay: cell-based or functional assay; remark: listed apart in the source
[40] = molecular target: T2, human GLP-1 receptor; assay: cell-based or functional assay; remark: listed apart in the source

Molecule: [PLA6, E9, K12E16(Lactam)] glucagon(6-39) (peptide)
- Glu IC50 [1]: 0.072 µM
- Glucagon IC50 [1]: 0.072 µM
- GLP-1 EC50 [2]: 0.006 µM

B1: [PLA^6, E^9]Glucagon(aa6-29)-NH2 (peptide)
peptide: [PhLac]TSEYSKYLDSRRAQDFVQWLMNT-NH2
notes: also called [PLA6, E9]; G(6-29); [PLA6, E9]Glucagon(6-29)
- IC50 (cAMP, inhibit 0.1 nM Glucagon) [3]: 0.00239 µM
- IC50 (cAMP, inhibit 0.2 nM Glucagon) [3]: 0.0424 µM
- IC50 (cAMP, inhibit 0.8 mM Glucagon) [4]: 0.0648 µM
- Glucagon antagonism IC50 (inhibit 0.8 nM glucagon) [5]: 0.0947 µM
- GLP-1 agonism EC50 [6]: 0.901 µM
- Glucagon antagonism IC50 (inhibit 0.5nM G) [7]: 0.0238 µM
- fold increase of affinity relative to the native Phe6 analog [8]: 3 fold
- IC50 [9]: 0.0123 µM
- IC50 [10]: 0.0123 µM

B2: [PLA6, K12E16(lactam), D28]G(6-29) (peptide)
peptide: [PhLac]TSDYSKYLDERRAQDFVQWLMDT-NH2
modifications: lactam 7-11; N-terminus assumed
SMILES: CSCC[C@H](NC(=O)[C@H](CC(C)C)NC(=O)[C@H](Cc1c[nH]c2ccccc12)NC(=O)[C@H](CCC(N)=O)NC(=O)[C@@H](NC(=O)[C@H](Cc1ccccc1)NC(=O)[C@H](CC(=O)O)NC(=O)[C@H](CCC(N)=O)NC(=O)[C@H](C)NC(=O)[C@H](CCCNC(=N)N)NC(=O)[C@H](CCCNC(=N)N)NC(=O)[C@@H]1CCC(=O)NCCCC[C@H](NC(=O)[C@H](CO)NC(=O)[C@H](Cc2ccc(O)cc2)NC(=O)[C@H](CC(=O)O)NC(=O)[C@H](CO)NC(=O)[C@@H](NC(=O)[C@@H](O)Cc2ccccc2)[C@@H](C)O)C(=O)N[C@@H](Cc2ccc(O)cc2)C(=O)N[C@@H](CC(C)C)C(=O)N[C@@H](CC(=O)O)C(=O)N1)C(C)C)C(=O)N[C@@H](CC(=O)O)C(=O)N[C@H](C(N)=O)[C@@H](C)O
- Glucagon IC50 [11]: 0.063 µM
- GLP-1 EC50 [12]: 0.177 µM
- Glucagon IC50 [13]: 0.013 µM
- GLP-1 EC50 [14]: 0.021 µM
- Glucagon antagonism IC50 (inhibit 0.2-0.8 nM glucagon) [15]: 0.0583 µM
- GLP-1 agonism EC50 [16]: 0.0385 µM
- Glucagon antagonism IC50 (inhibit 0.2-0.8 nM glucagon) [17]: 0.0583 µM
- GLP-1 agonism EC50 [18]: 0.0385 µM
- Glucagon antagonism IC50 (inhibit 0.2-0.8 nM glucagon) [19]: 0.0583 µM
- GLP-1 agonism EC50 [20]: 0.0385 µM

Molecule: GTFTSEYSKYLDSRRAQDFVQWLMNT-NH2 (also called peptide no) [[Glu^9]Glucagon(aa4-29)-NH2]
- cAMP Inhibition IC50 [21]: 0.128 µM
- cAMP pA2 [22]: 7.05

Molecule: FTSDYSKYLDERRAQDFVQWLMNTGPSSGAPPPS (lactam bridge Lys12-Glu16; C-terminal amide) [D9, K12E16(Lactam) glucagon(6-39)]
- GLP-1 EC50 [23]: 0.119 µM
- Glu IC50 [24]: 0.828 µM
- GLP-1 EC50 [25]: 0.018 µM
- Glucagon IC50 [26]: 0.828 µM

Molecule: [PhLac]TSDYSKYLDERRAKDFVQWLMDT-NH2 (lactam 11-15) [[PLA6, E16K20(lactam), D28]G(6-29)]
- Glucagon IC50 [13]: 0.006 µM
- GLP-1 EC50 [14]: 0.004 µM
- Glucagon antagonism IC50 (inhibit 0.2-0.8 nM glucagon) [15]: 0.0117 µM and 0.0055 µM
- GLP-1 agonism EC50 [16]: 0.0069 µM and 0.0042 µM
- Glucagon antagonism IC50 (inhibit 0.2-0.8 nM glucagon) [17]: 0.0117 µM and 0.0055 µM
- GLP-1 agonism EC50 [18]: 0.0069 µM and 0.0042 µM
- Glucagon antagonism IC50 (inhibit 0.8 nM glucagon) [27]: 0.0137 µM
- GLP-1 agonism EC50 [28]: 0.0106 µM
- Glucagon antagonism IC50 (inhibit 0.8 nM glucagon) [29]: 0.0137 µM
- GLP-1 agonism EC50 [30]: 0.0106 µM
- GLP-1 agonism EC50 [31]: 0.0207 µM
- Glucagon antagonism IC50 (inhibit 0.4 nM glucagon) [32]: 0.00414 µM and 0.00799 µM
- GLP-1 agonism EC50 [33]: 0.048 µM
- Glucagon antagonism IC50 (inhibit 0.8 nM glucagon) [5]: 0.0203 µM
- GLP-1 agonism EC50 [6]: 0.0182 µM

B3: [Glu^9]Glucagon(aa6-29)-NH2 (peptide)
peptide: FTSEYSKYLDSRRAQDFVQWLMNT-NH2
notes: also called [E^9]Glucagon(aa6-29)-NH2; peptide no; 11
- cAMP Inhibition IC50 [21]: 0.097 µM
- cAMP (I/A)50 inhibition index [22]: 486
- cAMP pA2 [22]: 7.16
- cAMP IC50 [34]: 0.0972 µM
- cAMP pA2 [34]: 7.16
- IC50 [35]: 0.036 µM
- IC50 [36]: 0.0364 µM
- IC50 [37]: 0.0364 µM

B4: [PLA^6, D^9, D^28] Glucagon(aa6-29)-NH2 (peptide)
peptide: FTSDYSKYLDSRRAQDFVQWLMDT
modifications: PLA at position 6; C-terminal amide
notes: also called [PLA6, D9, D28]Glucagon(6-29)
- IC50 (cAMP, inhibit 0.1 nM Glucagon) [3]: 0.00132 µM
- Glucagon antagonism IC50 (inhibit 0.5nM G) [7]: 0.00903 µM
- IC50 [9]: 0.009 µM

Molecule: SQGTXTSEYSKYLDSRRAQDFVQWLMNT (depsipeptide bond between Thr5 and PLA6; C-terminal amide) [[Thr5-O-PLA6,E9]Glucagon(2-29)]
- Glucagon antagonism IC50 (inhibit 0.5nM G) [7]: 0.00649 µM
- GLP-1 agonism EC50 [38]: 1.31 µM

Molecule: HSQGTFTSDYSRYLDSRRAQDFVQWLMNK [Glucagon R12 K29]
- cAMP Induction EC50 [39]: 0.00081 µM
- cAMP Induction EC50 [40]: 0.00041 µM
